Variants at the floor of the assay were thinned out.
Experiments:
[1] = tested on: biotinyl-Val-oxazolone; experiment: self-aminoacylation, catalytic enhancement (BVO) (fold over background); higher = more active; k-Seq, kA / k0A0; sequences stand for … in GGGAAUGGAUCCACAUCUACGAAUUC…UUCACUGCAGACUUGACGAAGCUG
Summary of the method: (§1)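 Mutagenized RNA pools with a 21-nt variable region (0.43 μM) reacted with each biotinyl-aminoacyl-oxazolone at 2–1250 μM. Reactions ran in 50 μL HEPES/NaCl/KCl/MgCl2/CaCl2 buffer with 5% acetonitrile, pH 6.9–7.0, for 90 minutes at room temperature. Streptavidin-captured RNA was quantified by triplicate qPCR and Illumina sequencing, and per-sequence fraction reacted was fit to a pseudo-first-order model with 1000 bootstraps. Catalytic enhancement is median kA divided by the uncatalyzed rate, the low-activity peak of a bimodal Gaussian fit.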

[2] = tested on: biotinyl-Leu-oxazolone; experiment: self-aminoacylation, catalytic enhancement (BLO) (fold over background); higher = more active; k-Seq, kA / k0A0; sequences stand for … in GGGAAUGGAUCCACAUCUACGAAUUC…UUCACUGCAGACUUGACGAAGCUG
Summary of the method: as §1

[3] = tested on: biotinyl-Met-oxazolone; experiment: self-aminoacylation, catalytic enhancement (BMO) (fold over background); higher = more active; k-Seq, kA / k0A0; sequences stand for … in GGGAAUGGAUCCACAUCUACGAAUUC…UUCACUGCAGACUUGACGAAGCUG
Summary of the method: as §1

[4] = tested on: biotinyl-Trp-oxazolone; experiment: self-aminoacylation, catalytic enhancement (BWO) (fold over background); higher = more active; k-Seq, kA / k0A0; sequences stand for … in GGGAAUGGAUCCACAUCUACGAAUUC…UUCACUGCAGACUUGACGAAGCUG
Summary of the method: as §1

[5] = tested on: biotinyl-Ile-oxazolone; experiment: self-aminoacylation, catalytic enhancement (BIO) (fold over background); higher = more active; k-Seq, kA / k0A0; sequences stand for … in GGGAAUGGAUCCACAUCUACGAAUUC…UUCACUGCAGACUUGACGAAGCUG
Summary of the method: as §1

[6] = tested on: biotinyl-Phe-oxazolone; experiment: self-aminoacylation, catalytic enhancement (BFO) (fold over background); higher = more active; k-Seq, kA / k0A0; sequences stand for … in GGGAAUGGAUCCACAUCUACGAAUUC…UUCACUGCAGACUUGACGAAGCUG
Summary of the method: as §1

Row | Sequence | self-aminoacylation [1] | self-aminoacylation [2] | self-aminoacylation [3] | self-aminoacylation [4] | self-aminoacylation [5] | self-aminoacylation [6]
1 | GUUACCCCGGUCAUCGAGUGA [Fam2.1 aminoacylation ribozyme variant] | 3.38 | 7.66 | 6.95 | 8.27 | 3.82 | 45.8
2 | CCACUUCCAACAAUCGGUCUG [Fam1A.1 aminoacylation ribozyme variant] | 1.11 | 1.15 | 1.11 | 1.6 | 0.991 | 1.13
3 | AUUCACCGAGGUCACCGGGUG [Fam2.2 aminoacylation ribozyme variant] | 5.88 | 10.8 | 9.61 | 8.69 | 6.91 | 74.9
4 | ACGUUUGGUAAUAGUCGCAAG [Fam3.1 aminoacylation ribozyme variant] | 1.55 | 2.1 | 1.54 | 2.45 | 1.75 | 2.95
5 | UCACACUUCAAGCCAUCGGUC [Fam1B.1 aminoacylation ribozyme variant] | 1.24 | 1.1 | 1.08 | 0.854 | 1.01 | 0.948
6 | CUACUUCAAUCAAUCGGUCUG [Fam1A.1 aminoacylation ribozyme variant] | 1.03 | 1.44 | 1.04 | 17.9 | 1.01 | 31.7
7 | AAGUUUGCUAAUAGCCACAAG [Fam3.1 aminoacylation ribozyme variant] | 0.827 | 0.833 | 0.55 | 0.834 | 0.821 | 1.59
8 | AAUCACAUAGGUCAUCGGGUG [Fam2.2 aminoacylation ribozyme variant] | 4.18 | 7.16 | 7.73 | 6.45 | 4.88 | 49.2
9 | AUCACCCUGGUCAUCGAGUGU [Fam2.1 aminoacylation ribozyme variant] | 8.64 | 21.5 | 22.5 | 20.2 | 7.23 | 94.9
10 | CCACACUUCAAGCGAUAGGUC [Fam1B.1 aminoacylation ribozyme variant] | 0.642 | 0.543 | 0.471 | 0.453 | 0.605 | 0.743
11 | AUUAAACUAGGUCAUCGGGUG [Fam2.2 aminoacylation ribozyme variant] | 3.11 | 5.02 | 3.79 | 4.43 | 2.89 | 23
12 | AAGUUUGCUAAUAGUCCGAAG [Fam3.1 aminoacylation ribozyme variant] | 1.02 | 0.863 | 1.02 | 1.89 | 1.1 | 4.75
13 | AGCUUUGCUAAUAGUCGCAAG [Fam3.1 aminoacylation ribozyme variant] | 2.4 | 3.02 | 3.31 | 3.68 | 2.95 | 9.09
14 | AAGUCUGCUAAUAGUAGCAAG [Fam3.1 aminoacylation ribozyme variant] | 1.08 | 1.44 | 1.24 | 1.67 | 0.968 | 1.42
15 | CUACAUCAAACAAUCGGUCUG [Fam1A.1 aminoacylation ribozyme variant] | 0.82 | 0.736 | 0.759 | 1.41 | 0.799 | 2.27
16 | CUACUUCAAACAAUCCGGCUG [Fam1A.1 aminoacylation ribozyme variant] | 1.78 | 1.44 | 1.4 | 0.952 | 1.5 | 1.01
17 | CCACACUUUAAGCAAUCGGUA [Fam1B.1 aminoacylation ribozyme variant] | 0.95 | 0.63 | 0.722 | 0.553 | 0.788 | 0.889
18 | AUUCACCUAGCUCAUCGGGUA [Fam2.2 aminoacylation ribozyme variant] | 2.54 | 2.41 | 2.03 | 2.53 | 2.08 | 11.2
19 | CUACUCUUCAAGCAAUCGGUC [Fam1B.1 aminoacylation ribozyme variant] | 0.924 | 1.07 | 0.904 | 11 | 0.859 | 25.4
20 | AUUACCCUGGUCACCGAGUCA [Fam2.1 aminoacylation ribozyme variant] | 1.49 | 1.75 | 1.45 | 1.84 | 1.43 | 0.799
21 | CCACCCGUCAAGCAAUCGGUC [Fam1B.1 aminoacylation ribozyme variant] | 1.44 | 1.12 | 1.2 | 1.08 | 1.24 | 1.12
22 | AAGUUUGCCAGUAGUCGCAAG [Fam3.1 aminoacylation ribozyme variant] | 0.932 | 1.02 | 0.793 | 1.21 | 1.04 | 0.763
23 | CCACACUUCAAGUAAUCCGUC [Fam1B.1 aminoacylation ribozyme variant] | 1.06 | 0.839 | 1.1 | 1.16 | 1.06 | 0.9
24 | AUUACCCUGGUCUUCAAGUGA [Fam2.1 aminoacylation ribozyme variant] | 2.67 | 4.28 | 4.91 | 5.67 | 2.76 | 23.8
25 | GUUCACCUAGGUCCUCGGGUG [Fam2.2 aminoacylation ribozyme variant] | 4.16 | 4.67 | 4.16 | 5.27 | 3.49 | 25.5
26 | CUACUUCGAACAAUCGGUGUG [Fam1A.1 aminoacylation ribozyme variant] | 0.999 | 1.26 | 1.13 | 1.25 | 1.03 | 0.861

Row | Sequence | self-aminoacylation [1] | self-aminoacylation [2] | self-aminoacylation [3] | self-aminoacylation [4] | self-aminoacylation [5] | self-aminoacylation [6]
27 | AUUAGCCUAGGUCAUCGGGUG [Fam2.2 aminoacylation ribozyme variant] | 15.8 | 41.9 | 30.9 | 23.3 | 19 | 219
28 | AUACUCCUAGGUCAUCGGGUG [Fam2.2 aminoacylation ribozyme variant] | 2.98 | 5.38 | 3.69 | 3.91 | 2.97 | 27.5
29 | AUUCACCUAGUUCACCGGGUG [Fam2.2 aminoacylation ribozyme variant] | 2.41 | 3.58 | 3.25 | 3.92 | 2.37 | 15.6
30 | AAGUUUGCUAGAAGUCGCAAG [Fam3.1 aminoacylation ribozyme variant] | 0.656 | 0.824 | 0.802 | 1.51 | 0.674 | 0.798
31 | AUUACCCUAGUCAUGGAGUGA [Fam2.1 aminoacylation ribozyme variant] | 2.68 | 4.06 | 4.31 | 5.17 | 2.79 | 15.5
32 | AUUACCGUGAUCAUCGAGUGA [Fam2.1 aminoacylation ribozyme variant] | 4.34 | 8.78 | 9.07 | 10.5 | 4.18 | 44.9
33 | GCACACUUCAGGCAAUCGGUC [Fam1B.1 aminoacylation ribozyme variant] | 2.42 | 1.67 | 2.04 | 2.39 | 2.21 | 3.06
34 | AUUCAGCUAGGUCAUCGCGUG [Fam2.2 aminoacylation ribozyme variant] | 5.79 | 6.83 | 6.28 | 5.71 | 4.48 | 54.8
35 | CGACUUCAAACAAUUGGUCUG [Fam1A.1 aminoacylation ribozyme variant] | 0.891 | 0.999 | 0.91 | 1.25 | 1.06 | 1.57
36 | CGACACUUCAAGCAAACGGUC [Fam1B.1 aminoacylation ribozyme variant] | 0.76 | 0.537 | 0.687 | 0.612 | 0.814 | 0.979
37 | CUUCUUCAAACAAUCGGUAUG [Fam1A.1 aminoacylation ribozyme variant] | 0.66 | 0.779 | 0.647 | 4.71 | 0.784 | 9.62
38 | CCACACUGCAAGCAAUAGGUC [Fam1B.1 aminoacylation ribozyme variant] | 0.907 | 0.915 | 0.777 | 0.601 | 0.905 | 1.15
39 | AUUCAUCUAGGUCAUGGGGUG [Fam2.2 aminoacylation ribozyme variant] | 3.14 | 6.73 | 4.98 | 4.54 | 3.26 | 37
40 | CCACACUUUAAGCGAUCGGUC [Fam1B.1 aminoacylation ribozyme variant] | 1.11 | 1.25 | 1.16 | 1.03 | 1.13 | 0.891
41 | AUUCACCUUGGUCAUCAGGUG [Fam2.2 aminoacylation ribozyme variant] | 1.39 | 2.49 | 1.9 | 2.15 | 1.7 | 7.28
42 | AUUCACCUCGGUAAUCGGGUG [Fam2.2 aminoacylation ribozyme variant] | 3.32 | 6.13 | 4.55 | 4.41 | 4.01 | 31.8
43 | CCACAUUUGAAGCAAUCGGUC [Fam1B.1 aminoacylation ribozyme variant] | 1.31 | 1.17 | 1.04 | 0.886 | 1.28 | 1.09
44 | CUACUUCAAACAAUAGGUCUA [Fam1A.1 aminoacylation ribozyme variant] | 0.776 | 0.639 | 0.699 | 0.756 | 0.755 | 0.832
45 | AUUCCCCGAGGUCAUCGGGUG [Fam2.2 aminoacylation ribozyme variant] | 14 | 29.9 | 22.7 | 20.2 | 12.5 | 188
46 | AUUCACCUAGGGCACCGGGUG [Fam2.2 aminoacylation ribozyme variant] | 3.88 | 4.66 | 4.01 | 3.62 | 3.58 | 23.3
47 | AAAUUUGCAAAUAGUCGCAAG [Fam3.1 aminoacylation ribozyme variant] | 1.37 | 1.82 | 1.35 | 1.82 | 1.9 | 2.27
48 | CUACUUCAAACAAACGUUCUG [Fam1A.1 aminoacylation ribozyme variant] | 0.622 | 0.579 | 0.529 | 0.591 | 0.591 | 0.686
49 | ACUACCCAGGUCAUCGAGUGA [Fam2.1 aminoacylation ribozyme variant] | 3.89 | 6.28 | 5.02 | 5.32 | 3.72 | 23.2
50 | AAUCCCCUGGUCAUCGAGUGA [Fam2.1 aminoacylation ribozyme variant] | 3.96 | 6.5 | 6.29 | 5.97 | 3.35 | 34.4
51 | AUUCACCUAGGUGAUCGGGUA [Fam2.2 aminoacylation ribozyme variant] | 2.48 | 3.14 | 3.18 | 3.59 | 2.67 | 9.83
